Laboratory results from article PMC9330529.

Assays:
[1] = molecular target: SARS-CoV-2 spike protein WT (SARS-CoV-2 (WT), UniProt P0DTC2 14-1213); assay: streptavidin bead fluorescence binding; conditions: protein: commercial, tags: His, chain copies: 3
SARS-CoV-2 S2 protein [2] = molecular target: SARS-CoV-2 S2 protein (SARS-CoV-2 (WT), UniProt P0DTC2 686-1213); assay: streptavidin bead fluorescence binding; conditions: protein: commercial; tags: His
SARS-CoV-2 S2 protein [3] = molecular target: SARS-CoV-2 S2 protein (SARS-CoV-2 (WT), UniProt P0DTC2 686-1213); assay: streptavidin bead fluorescence binding; conditions: protein: commercial, tags: His
SARS-CoV-1 spike protein = SARS-CoV-1 spike protein (SARS-CoV-1, UniProt P59594 14-1195)
SARS-CoV-2 S1 protein = SARS-CoV-2 S1 protein (SARS-CoV-2, UniProt P0DTC2 14-685)
PD-L1 = PD-L1 (UniProt Q9NZQ7 19-238); assay: AuNP colorimetric assay; 1.5 M NaCl, 250 nM each; SELEX buffer: PBS, 1 mM MgCl2, 0.01% Tween, pH 7.4, room temperature; conditions: protein: commercial; hairpin
Sequence of PD-L1 (Q9NZQ7 19-238): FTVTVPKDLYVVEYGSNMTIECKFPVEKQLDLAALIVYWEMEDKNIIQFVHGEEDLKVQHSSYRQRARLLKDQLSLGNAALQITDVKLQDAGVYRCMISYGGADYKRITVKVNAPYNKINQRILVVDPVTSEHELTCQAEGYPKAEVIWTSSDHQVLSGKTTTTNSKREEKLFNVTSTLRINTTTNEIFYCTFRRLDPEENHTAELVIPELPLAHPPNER

B1: S1B6C3 (ssDNA)
DNA: CGCAGCACCCAAGAACAAGGACTGCTTAGGATTGCGATAGGTTCGG
Kd [1]: 56.4 ± 14.2 nM

B2: S2A1C1 (ssDNA)
DNA: CAAGGAGCGACCAGAGGGGCGGTTTATCAACAACTCGCTCTGTACACCACTCTTTG
binding result (SARS-CoV-2 S2 protein [2]): binds

B3: S2A2C3 (ssDNA)
DNA: CAAGGAGCGACCAGAGGCGGGTTCCTAGACTTGTACTCAGCCT
binding result (SARS-CoV-2 S2 protein [3]; label: 6-FAM): binds

B4: S2A2C1 (ssDNA)
DNA: AGGCGGGTTCCTAGACTTGTACTCAGCCT
binding result (SARS-CoV-1 spike protein): binds | binding result (SARS-CoV-2 S1 protein): no binding | Kd ([1]; hairpin): 83.4 ± 8 nM | Kd (SARS-CoV-2 S2 protein [3]; hairpin): 35 ± 4.3 nM | binding result (PD-L1): no binding

B5: S2A1 (ssDNA)
DNA: CAAGGAGCGACCAGAGGGGCGGTTTATCAACAACTCGCTCTGTACACCACTCTTTGTTGGCATCCTTCAGCCC
Kd (SARS-CoV-2 S2 protein [2]): 49.7 ± 3.2 nM

B6: S2A2 (ssDNA)
DNA: CAAGGAGCGACCAGAGGCGGGTTCCTAGACTTGTACTCAGCCTTTACAGCTATGCCCTGGCATCCTTCAGCCC
Kd (SARS-CoV-2 S2 protein [3]; label: 6-FAM): 44.2 ± 6.6 nM
